Test results taken from article PMC8390506.

Target: double-mutant TPX2 (2M-TPX2) (Xenopus laevis) (UniProt Q6NUF4)
Experiment: BLI; Octet (ForteBio); TPX2 attached to sensors, importin concentration varied; normalized amplitudes; apparent Kd

Chain of importin-αΔIBB (truncated importin-α without the importin-β-binding domain) (domain or fragment) (P52170 71-522, stated change not applied): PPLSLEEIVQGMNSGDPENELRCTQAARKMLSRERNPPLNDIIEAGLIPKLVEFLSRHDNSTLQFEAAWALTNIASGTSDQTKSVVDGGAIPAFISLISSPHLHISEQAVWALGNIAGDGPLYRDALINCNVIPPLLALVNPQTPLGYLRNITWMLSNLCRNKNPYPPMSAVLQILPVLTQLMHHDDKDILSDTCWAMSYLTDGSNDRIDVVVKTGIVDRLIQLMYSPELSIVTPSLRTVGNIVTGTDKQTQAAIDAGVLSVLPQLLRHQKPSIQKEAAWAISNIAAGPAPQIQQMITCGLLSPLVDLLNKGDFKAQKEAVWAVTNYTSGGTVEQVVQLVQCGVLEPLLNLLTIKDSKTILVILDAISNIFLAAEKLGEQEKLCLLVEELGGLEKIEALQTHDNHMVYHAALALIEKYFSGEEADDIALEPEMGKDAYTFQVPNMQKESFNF

Kd: 45 nM
Substance: importin-αΔIBB (truncated importin-α without the importin-β-binding domain) (domain or fragment)
